Measurements: article PMC2806001, “Identification of Peroxiredoxin 1 as a novel interaction partner for the lifespan regulator protein p66Shc” (Aging, 2009)
Positions count from the first letter of the chain named. Several values for one entry are separate records, joined by “and”; a condition that tells them apart may be missing. Equal entries are not always repeated.

B1: Peroxiredoxin 1 (Prx1) WT, recombinant (enzyme, mouse, UniProt P35700 1-199, looked up)
chain: MSSGNAKIGYPAPNFKATAVMPDGQFKDISLSEYKGKYVVFFFYPLDFTFVCPTEIIAFSDRADEFKKLNCQVIGASVDSHFCHLAWINTPKKQGGLGPMNIPLISDPKRTIAQDYGVLKADEGISFRGLFIIDDKGILRQITINDLPVGRSVDEIIRLVQAFQFTDKHGEVCPAGWKPGSDTIKPDVNKSKEYFSKQK
notes: Peroxiredoxin 1, gene PCR-amplified from mouse colon cDNA, cloned into pET151/D-Topo; Mainly a decamer (five dimers) on the BN-gel; also called decameric Prx1; source: E. coli BL21(DE3)Rosetta2, purified (Talon resin, size exclusion on superose 12); copies: 10
B2: Prx1-Cys52Ser (enzyme, mouse, UniProt P35700 1-199, looked up)
chain: B1 chain with C52S
notes: Peroxiredoxin 1 from mouse colon cDNA in pET151/D-Topo, Cys52Ser (peroxidasic cysteine); also called Prx1-Cys52Ser active site mutant; source: E. coli BL21(DE3)Rosetta2, purified (Talon resin, size exclusion on superose 12); copies: 10
B3: Prx1-Cys83Ser (enzyme, mouse, UniProt P35700 1-199, looked up)
chain: B1 chain with C83S
notes: Peroxiredoxin 1 from mouse colon cDNA in pET151/D-Topo, Cys83Ser; Constitutively dimeric; also called Cys83Ser regulatory mutant; dimeric Prx1-Cys83Ser mutant; source: E. coli BL21(DE3)Rosetta2, purified (Talon resin, size exclusion on superose 12)
B4: p66CH2CB WT (N-terminal domains CH2 and CB of p66Shc, residues 1-150) (domain or fragment, UniProt P29353-1 1-150, looked up)
chain: MDLLPPKPKYNPLRNESLSSLEEGASGSTPPEELPSPSASSLGPILPPLPGDDSPTTLCSFFPRMSNLRLANPAGGRPGSKGEPGRAADDGEGIVGAAMPDSGPLPLLQDMNKLSGGGGRRTRVEGGQLGGEEWTRHGSFVNKPTRGWLH
notes: p66Shc (largest polypeptide of the shcA locus), residues 1-150 (CH2 and CB domains); Exists as a reduced dimer and an oxidised, disulfide-bridged tetramer; used as a mixture or as isolated states; also called p66Shc N-terminal domain; source: E. coli BL21(DE3)Rosetta2, purified (Talon resin, size exclusion on superose 12)
B5: p66CH2CB-Ser36Asp (domain or fragment, UniProt P29353 1-150, looked up)
chain: B4 chain with S36D
notes: p66Shc, residues 1-150 (CH2 and CB domains), Ser36Asp phosphomimetic; Dimer and tetramer forms were both used; also called Ser36Asp mutant; p66CH2CB-Ser36Asp mutant simulating Ser36 phosphorylation; source: E. coli BL21(DE3)Rosetta2, purified (Talon resin, size exclusion on superose 12)

What was measured:
[1] = biological target: B4; test: native gel or EMSA; BN-PAGE of purified recombinant proteins incubated for 1 hour at room temperature (20 μg p66CH2CB with 40 μg Prx1 WT or 20 μg Prx1-Cys83Ser); bands cut out and separated in a second, denaturing SDS-PAGE dimension; conditions: both partners purified
[2] = biological target: the molecule itself; test: native gel or EMSA; BN-PAGE; 15 μg p66CH2CB with 30 μg decameric Prx1-Cys52Ser and 5/10/20 μg Trx1 in the presence of 3 mM EDTA
[3] = biological target: the molecule itself; test: native gel or EMSA; BN-PAGE of purified recombinant proteins incubated for 1 hour at room temperature (20 μg p66CH2CB with 40 μg Prx1 WT or 20 μg Prx1-Cys83Ser); bands cut out and separated in a second, denaturing SDS-PAGE dimension
[4] = biological target: the molecule itself; test: SEC; oligomeric states separated on a superose 12 column in 20 mM Tris pH 7.8 + 150 mM NaCl

B1
stoichiometry N [1]: 1

B2
stoichiometry N [2]: 10

B3
stoichiometry N [3]: 2

B4
stoichiometry N [3]: 4
stoichiometry N [4]: 2

B5
stoichiometry N [4]: 2 and 4
